T1: HIS-tagged human CD73 (huCD73-HIS) (human, UniProt P21589 27-547)
T1 sequence: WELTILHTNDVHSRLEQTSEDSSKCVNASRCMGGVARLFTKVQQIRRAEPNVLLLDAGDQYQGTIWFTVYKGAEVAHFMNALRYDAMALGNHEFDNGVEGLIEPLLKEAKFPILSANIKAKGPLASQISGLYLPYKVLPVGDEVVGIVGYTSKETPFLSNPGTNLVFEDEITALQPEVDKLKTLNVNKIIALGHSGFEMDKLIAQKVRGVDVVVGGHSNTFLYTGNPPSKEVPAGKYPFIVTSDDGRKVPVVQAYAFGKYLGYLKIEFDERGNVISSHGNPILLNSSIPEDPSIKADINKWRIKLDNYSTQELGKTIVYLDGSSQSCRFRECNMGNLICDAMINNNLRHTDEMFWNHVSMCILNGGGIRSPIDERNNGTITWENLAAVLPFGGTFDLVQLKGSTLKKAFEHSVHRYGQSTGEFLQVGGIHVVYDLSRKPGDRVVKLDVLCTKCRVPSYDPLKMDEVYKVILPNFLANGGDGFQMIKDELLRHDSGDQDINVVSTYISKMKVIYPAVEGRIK

T2: human CD73 expressed on the surface of cells (human, UniProt P21589 27-549)
T2 sequence: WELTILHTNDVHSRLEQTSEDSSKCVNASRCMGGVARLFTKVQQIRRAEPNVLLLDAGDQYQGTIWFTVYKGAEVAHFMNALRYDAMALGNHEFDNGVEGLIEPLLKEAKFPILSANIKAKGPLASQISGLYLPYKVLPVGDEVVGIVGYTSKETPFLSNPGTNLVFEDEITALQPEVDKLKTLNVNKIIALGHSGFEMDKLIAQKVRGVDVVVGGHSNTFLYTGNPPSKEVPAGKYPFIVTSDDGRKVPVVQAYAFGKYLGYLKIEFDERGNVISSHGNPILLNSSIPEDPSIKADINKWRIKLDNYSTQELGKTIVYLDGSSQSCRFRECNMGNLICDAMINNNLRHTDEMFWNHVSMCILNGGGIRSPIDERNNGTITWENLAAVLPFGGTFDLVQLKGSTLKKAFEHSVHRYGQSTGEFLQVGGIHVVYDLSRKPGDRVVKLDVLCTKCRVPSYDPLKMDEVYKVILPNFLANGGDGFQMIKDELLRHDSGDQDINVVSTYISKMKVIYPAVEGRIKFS


target: T1, HIS-tagged human CD73 (huCD73-HIS); assay: cell-based or functional assay

Binder | IC50 (nM), huCD73 enzymatic assay in solution
60A9-H1L1 (antibody, V domains shown) VH: EVQLVESGGGLVQPGQSLKLSCKASGYAFSSYWMNWVRQAPGKGLEWMGQIYPGDGDTYYNPSVKGRFTISADTSKNTAYLQLNNLRAEDTAVYYCAREAIYYGNYVFTYWGQGTLVTVSS VL: DIQMTQSPSLLSASLGDRVTITCKSSQSLLNSSNQKNYLAWYQQKPGQSPKLLIYFASTRDSGVPDRFSGSGSGTDFTLTISSLEPEDFATYYCQQHYSTPLTFGGGTKLEIK | 3.34 nM
60A9-H4L1 (antibody, V domains shown) VH: EVQLVESGGGLVQPGQSLKLSCKASGYAFSSYWMNWVRQAPGKGLEWIGQIYPGDGDTYYSGSVKGRATLSADKSKNTAYLQLNNLRAEDTAVYYCAREAIYYGNYVFTYWGQGTLVTVSS VL: DIQMTQSPSLLSASLGDRVTITCKSSQSLLNSSNQKNYLAWYQQKPGQSPKLLIYFASTRDSGVPDRFSGSGSGTDFTLTISSLEPEDFATYYCQQHYSTPLTFGGGTKLEIK | 3.1 nM
60A9-H4L2 (antibody, V domains shown) VH: EVQLVESGGGLVQPGQSLKLSCKASGYAFSSYWMNWVRQAPGKGLEWIGQIYPGDGDTYYSGSVKGRATLSADKSKNTAYLQLNNLRAEDTAVYYCAREAIYYGNYVFTYWGQGTLVTVSS VL: DIVMTQSPSSLSASLGDRVTITCKSSQSLLNSSNQKNYLAWYQQKPGQSPKLLIYFASTRDSGVPDRFSGSGSGTDFTLTISSLEPEDFATYYCQQHYSTPLTFGGGTKLEIK | 4.97 nM
60A9-H4L3 (antibody, V domains shown) VH: EVQLVESGGGLVQPGQSLKLSCKASGYAFSSYWMNWVRQAPGKGLEWIGQIYPGDGDTYYSGSVKGRATLSADKSKNTAYLQLNNLRAEDTAVYYCAREAIYYGNYVFTYWGQGTLVTVSS VL: DIQMTQSPSLLSASLGDRVTITCKSSQSLLNSSNQKNYLAWYQQKPGQSPKLLVYFASTRDSGVPDRFSGSGSGTDFTLTISSLEPEDFATYYCQQHYSTPLTFGGGTKLEIK | 2.74 nM
60A9-H1L2 (antibody, V domains shown) VH: EVQLVESGGGLVQPGQSLKLSCKASGYAFSSYWMNWVRQAPGKGLEWMGQIYPGDGDTYYNPSVKGRFTISADTSKNTAYLQLNNLRAEDTAVYYCAREAIYYGNYVFTYWGQGTLVTVSS VL: DIVMTQSPSSLSASLGDRVTITCKSSQSLLNSSNQKNYLAWYQQKPGQSPKLLIYFASTRDSGVPDRFSGSGSGTDFTLTISSLEPEDFATYYCQQHYSTPLTFGGGTKLEIK | 6.17 nM
60A9-H1L3 (antibody, V domains shown) VH: EVQLVESGGGLVQPGQSLKLSCKASGYAFSSYWMNWVRQAPGKGLEWMGQIYPGDGDTYYNPSVKGRFTISADTSKNTAYLQLNNLRAEDTAVYYCAREAIYYGNYVFTYWGQGTLVTVSS VL: DIQMTQSPSLLSASLGDRVTITCKSSQSLLNSSNQKNYLAWYQQKPGQSPKLLVYFASTRDSGVPDRFSGSGSGTDFTLTISSLEPEDFATYYCQQHYSTPLTFGGGTKLEIK | 4.96 nM
60A9-H3L1 (antibody, V domains shown) VH: EVQLVESGGGLVQPGQSLKLSCKASGYAFSSYWMNWVRQAPGKGLEWIGQIYPGDGDTYYNPSVKGRATLSADKSKNTAYLQLNNLRAEDTAVYYCAREAIYYGNYVFTYWGQGTLVTVSS VL: DIQMTQSPSLLSASLGDRVTITCKSSQSLLNSSNQKNYLAWYQQKPGQSPKLLIYFASTRDSGVPDRFSGSGSGTDFTLTISSLEPEDFATYYCQQHYSTPLTFGGGTKLEIK | 2.94 nM
60A9-H3L2 (antibody, V domains shown) VH: EVQLVESGGGLVQPGQSLKLSCKASGYAFSSYWMNWVRQAPGKGLEWIGQIYPGDGDTYYNPSVKGRATLSADKSKNTAYLQLNNLRAEDTAVYYCAREAIYYGNYVFTYWGQGTLVTVSS VL: DIVMTQSPSSLSASLGDRVTITCKSSQSLLNSSNQKNYLAWYQQKPGQSPKLLIYFASTRDSGVPDRFSGSGSGTDFTLTISSLEPEDFATYYCQQHYSTPLTFGGGTKLEIK | 4.97 nM

The remaining lines, values ahead:

IC50 (nM), huCD73 enzymatic assay in solution | Binder
4.13 nM | 60A9-H2L1 (antibody, V domains shown) VH: EVQLVESGGGLVQPGGSLRLSCKASGYAFSSYWMNWVRQAPGKGLEWVGQIYPGDGDTYYNPSVKGRFTISADTSKNTLYLQMNSLRAEDTAVYYCAREAIYYGNYVFTYWGQGTLVTVSS VL: DIQMTQSPSLLSASLGDRVTITCKSSQSLLNSSNQKNYLAWYQQKPGQSPKLLIYFASTRDSGVPDRFSGSGSGTDFTLTISSLEPEDFATYYCQQHYSTPLTFGGGTKLEIK
11.2 nM | 60A9-H2L2 (antibody, V domains shown) VH: EVQLVESGGGLVQPGGSLRLSCKASGYAFSSYWMNWVRQAPGKGLEWVGQIYPGDGDTYYNPSVKGRFTISADTSKNTLYLQMNSLRAEDTAVYYCAREAIYYGNYVFTYWGQGTLVTVSS VL: DIVMTQSPSSLSASLGDRVTITCKSSQSLLNSSNQKNYLAWYQQKPGQSPKLLIYFASTRDSGVPDRFSGSGSGTDFTLTISSLEPEDFATYYCQQHYSTPLTFGGGTKLEIK
4.57 nM | 60A9-H2L3 (antibody, V domains shown) VH: EVQLVESGGGLVQPGGSLRLSCKASGYAFSSYWMNWVRQAPGKGLEWVGQIYPGDGDTYYNPSVKGRFTISADTSKNTLYLQMNSLRAEDTAVYYCAREAIYYGNYVFTYWGQGTLVTVSS VL: DIQMTQSPSLLSASLGDRVTITCKSSQSLLNSSNQKNYLAWYQQKPGQSPKLLVYFASTRDSGVPDRFSGSGSGTDFTLTISSLEPEDFATYYCQQHYSTPLTFGGGTKLEIK

target: T2, human CD73 expressed on the surface of …; assay: cell-based or functional assay

Binder | IC50 (nM), cell-based CD73 activity assay (A375 cells)
60A9-H2L4 (antibody, V domains shown) VH: EVQLVESGGGLVQPGGSLRLSCKASGYAFSSYWMNWVRQAPGKGLEWVGQIYPGDGDTYYNPSVKGRFTISADTSKNTLYLQMNSLRAEDTAVYYCAREAIYYGNYVFTYWGQGTLVTVSS VL: DIVMTQSPSLLSASLGDRVTISCKSSQSLLNSSNQKNYLAWYQQKPGQSPKLLVYFASTRDSGVPDRFSGSGSGTDFTLTISSLEPEDFATYFCQQHYSTPLTFGAGTKLEIK | 46 nM
60A9-H3L4 (antibody, V domains shown) VH: EVQLVESGGGLVQPGQSLKLSCKASGYAFSSYWMNWVRQAPGKGLEWIGQIYPGDGDTYYNPSVKGRATLSADKSKNTAYLQLNNLRAEDTAVYYCAREAIYYGNYVFTYWGQGTLVTVSS VL: DIVMTQSPSLLSASLGDRVTISCKSSQSLLNSSNQKNYLAWYQQKPGQSPKLLVYFASTRDSGVPDRFSGSGSGTDFTLTISSLEPEDFATYFCQQHYSTPLTFGAGTKLEIK | 134 nM
60A9-H5L2 (antibody, V domains shown) VH: EVQLVESGGGLVQPGQSLKLSCKASGYAFSSYWMNWVKQRPGKGLEWIGQIYPGDGDTYYSGKFKGRATLSADKSKNTAYLQLNNLRAEDTAVYYCAREAIYYGNYVFTYWGQGTLVTVSS VL: DIVMTQSPSSLSASLGDRVTITCKSSQSLLNSSNQKNYLAWYQQKPGQSPKLLIYFASTRDSGVPDRFSGSGSGTDFTLTISSLEPEDFATYYCQQHYSTPLTFGGGTKLEIK | 57.3 nM

The remaining lines, values ahead:

IC50 (nM), cell-based CD73 activity assay (A375 cells) | Binder
135 nM | 60A9-H4L4 (antibody, V domains shown) VH: EVQLVESGGGLVQPGQSLKLSCKASGYAFSSYWMNWVRQAPGKGLEWIGQIYPGDGDTYYSGSVKGRATLSADKSKNTAYLQLNNLRAEDTAVYYCAREAIYYGNYVFTYWGQGTLVTVSS VL: DIVMTQSPSLLSASLGDRVTISCKSSQSLLNSSNQKNYLAWYQQKPGQSPKLLVYFASTRDSGVPDRFSGSGSGTDFTLTISSLEPEDFATYFCQQHYSTPLTFGAGTKLEIK
61 nM | 60A9-H5L1 (antibody, V domains shown) VH: EVQLVESGGGLVQPGQSLKLSCKASGYAFSSYWMNWVKQRPGKGLEWIGQIYPGDGDTYYSGKFKGRATLSADKSKNTAYLQLNNLRAEDTAVYYCAREAIYYGNYVFTYWGQGTLVTVSS VL: DIQMTQSPSLLSASLGDRVTITCKSSQSLLNSSNQKNYLAWYQQKPGQSPKLLIYFASTRDSGVPDRFSGSGSGTDFTLTISSLEPEDFATYYCQQHYSTPLTFGGGTKLEIK
36.4 nM | 60A9-H5L3 (antibody, V domains shown) VH: EVQLVESGGGLVQPGQSLKLSCKASGYAFSSYWMNWVKQRPGKGLEWIGQIYPGDGDTYYSGKFKGRATLSADKSKNTAYLQLNNLRAEDTAVYYCAREAIYYGNYVFTYWGQGTLVTVSS VL: DIQMTQSPSLLSASLGDRVTITCKSSQSLLNSSNQKNYLAWYQQKPGQSPKLLVYFASTRDSGVPDRFSGSGSGTDFTLTISSLEPEDFATYYCQQHYSTPLTFGGGTKLEIK

Source: patent US20200399389A1 (PHANES THERAPEUTICS, published 2020)
